Experimental data as given in US20250270324A1 (INVOX PHARMA, published 2025).
Residue numbers refer to the chain shown, from its start.

B1: G1AA/280_02_G02_NS (antibody, human IgG1, L234A L235A)
heavy: not shown
light: QSALTQPASVSGSPGQSITISCTGTSSDVGGYNSVSWYQQFPGKAPKLMIFEVTNRPSGVSDRFSGSKSDNTASLTISGLQAEDEAEYYCSSFKRGSTLVVFGGGTKLTVLGQPAAAPSVTLFPPSSEELQANKATLVCLISDFYPGAVTVAWKADSSPVKAGVETTTPSKQSNNKYAASSYLSLTPEQWKSHRSYSCQVTHEGSTVEKTVAPTECS
notes: also called G1AA/280_2_G02_NS
B2: G1/280_02_G02_NS (antibody, human IgG1)
heavy: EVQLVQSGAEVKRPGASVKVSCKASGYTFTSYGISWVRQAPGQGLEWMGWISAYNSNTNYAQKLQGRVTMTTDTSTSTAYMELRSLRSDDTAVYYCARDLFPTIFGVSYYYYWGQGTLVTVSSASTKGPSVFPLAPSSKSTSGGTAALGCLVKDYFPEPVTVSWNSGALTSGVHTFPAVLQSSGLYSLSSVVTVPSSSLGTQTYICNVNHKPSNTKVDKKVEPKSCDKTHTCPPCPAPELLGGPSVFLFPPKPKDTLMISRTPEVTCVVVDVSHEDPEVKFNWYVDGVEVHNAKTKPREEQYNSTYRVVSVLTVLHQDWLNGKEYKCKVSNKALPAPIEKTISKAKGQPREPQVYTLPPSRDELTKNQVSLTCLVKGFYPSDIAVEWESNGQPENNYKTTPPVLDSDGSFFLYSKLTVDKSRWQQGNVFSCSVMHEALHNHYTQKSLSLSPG
light: B1 light
notes: IgG1 without LALA, lambda light chain; NG to NS variant of G1/280_02_G02
B3: G1/929_01_A01 (antibody, human IgG1, V domains shown)
VH: EVQLVQSGAEVKRPGASVKVSCKASGYTFTSYGISWVRQAPGQGLEWMGWISAYGGSTNYAQKLQGRVTMTTDTSTSTAYMELRSLRSDDTAVYYCARDLFPTIFGVSYYYYWGQGTLVTVSS
VL: DIQMTQSPSTLSASVRDRVIITCRASQSIGNRLAWYQHKPGKAPKLLIYEASTSETGVPSRFSGSGSGTDFTLTISSLQPEDFATYYCQQSYSTPYTFGQGTKLEIKR
notes: IgG1; The heavy chain as printed has T28
B4: G1/929_01_A05 (antibody, human IgG1, V domains shown)
VH: B3 VH with G55S, S57G
VL: DIQMTQSPSTLSASVGDRVTITCRASQSISGRLAWYQQKPGKAPNLLIYEASNLESGVPSRFSGSGSGTEFTLTINSLQPDDFATYYCQQANTFPRVSFGGGTKVEIKR
notes: IgG1
B5: G1/929_01_A04 (antibody, human IgG1, V domains shown)
VH: B3 VH
VL: B4 VL
notes: IgG1; GGST variant of G1/894_08_A05
B6: G1/929_01_A06 (antibody, human IgG1, V domains shown)
VH: B3 VH with G55S, S57N, T58A
VL: B4 VL
notes: IgG1
B7: G1/929_01_A03 (antibody, human IgG1, V domains shown)
VH: B3 VH with G55S, S57N, T58A
VL: B3 VL
notes: IgG1
B8: G1/929_01_A07 (antibody, human IgG1, V domains shown)
VH: B3 VH
VL: B4 VL with N76S, D81E, A91S, N92Y, T93S, F94T, S98T, G101Q
notes: IgG1; GGST variant of G1/894_08_E05
B9: G1/929_01_A09 (antibody, human IgG1, V domains shown)
VH: B3 VH with G55S, S57N, T58A
VL: B4 VL with N76S, D81E, A91S, N92Y, T93S, F94T, S98T, G101Q
notes: IgG1; SGNA variant of G1/894_08_E05
B10: G1/929_01_A08 (antibody, human IgG1)
heavy: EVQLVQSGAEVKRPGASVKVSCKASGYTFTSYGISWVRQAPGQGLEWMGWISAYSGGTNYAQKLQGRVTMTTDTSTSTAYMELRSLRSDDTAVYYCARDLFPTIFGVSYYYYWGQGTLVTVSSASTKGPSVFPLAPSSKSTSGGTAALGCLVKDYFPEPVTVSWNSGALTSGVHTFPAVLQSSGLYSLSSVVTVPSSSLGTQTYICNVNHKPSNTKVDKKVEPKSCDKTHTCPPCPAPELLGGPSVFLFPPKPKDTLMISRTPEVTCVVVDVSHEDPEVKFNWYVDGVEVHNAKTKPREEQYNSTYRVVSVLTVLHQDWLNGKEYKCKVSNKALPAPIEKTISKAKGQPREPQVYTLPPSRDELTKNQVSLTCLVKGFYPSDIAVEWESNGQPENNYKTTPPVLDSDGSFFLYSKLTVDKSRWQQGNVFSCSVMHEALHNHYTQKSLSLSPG
light: DIQMTQSPSTLSASVGDRVTITCRASQSISGRLAWYQQKPGKAPNLLIYEASNLESGVPSRFSGSGSGTEFTLTISSLQPEDFATYYCQQSYSTPRVTFGQGTKVEIKRTAAAAPSVFIFPPSDEQLKSGTASVVCLLNNFYPREAKVQWKVDNALQSGNSQESVTEQDSKDSTYSLSSTLTLSKADYEKHKLYACEVTHQGLSSPVTKSFNRGEC
notes: IgG1; SGGT variant of G1/894_08_E05; said to be the same as G1AA/E05v2 but without the LALA mutation
B11: G1/894_08_A05 (antibody, human IgG1, V domains shown)
VH: B3 VH with G55N, G56S, S57N
VL: B4 VL
notes: IgG1 without LALA, kappa light chain
B12: G1/929_01_A11 (antibody, human IgG1)
heavy: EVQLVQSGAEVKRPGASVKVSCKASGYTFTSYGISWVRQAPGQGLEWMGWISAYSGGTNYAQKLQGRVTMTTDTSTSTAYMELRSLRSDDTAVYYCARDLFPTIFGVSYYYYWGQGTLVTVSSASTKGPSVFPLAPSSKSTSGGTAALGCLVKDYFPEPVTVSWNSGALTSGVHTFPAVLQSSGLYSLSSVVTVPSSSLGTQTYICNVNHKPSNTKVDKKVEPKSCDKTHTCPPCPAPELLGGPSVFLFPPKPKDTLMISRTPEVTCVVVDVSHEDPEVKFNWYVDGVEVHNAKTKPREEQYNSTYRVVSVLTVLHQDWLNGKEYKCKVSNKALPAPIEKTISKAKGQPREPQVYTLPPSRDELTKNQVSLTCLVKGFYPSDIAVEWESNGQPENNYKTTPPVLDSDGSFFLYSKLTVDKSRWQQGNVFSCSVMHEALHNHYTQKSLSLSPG
light: DIQMTQSPSTLSASVGDRVTITCRASQSISGRLAWYQQKPGKAPNLLIYEASNLESGVPSRFSGSGSGTEFTLTISSLQPEDFATYYCQQSYSWPRTFGQGTKVEIKRTAAAAPSVFIFPPSDEQLKSGTASVVCLLNNFYPREAKVQWKVDNALQSGNSQESVTEQDSKDSTYSLSSTLTLSKADYEKHKLYACEVTHQGLSSPVTKSFNRGEC
notes: IgG1; said to be the same as G1AA/G12v2 but without LALA
B13: G1/929_01_A12 (antibody, human IgG1, V domains shown)
VH: B3 VH with G55S, S57N, T58A
VL: DIQMTQSPSTLSASVGDRVTITCRASQSISGRLAWYQQKPGKAPNLLIYEASNLESGVPSRFSGSGSGTEFTLTISSLQPEDFATYYCQQSYSWPRTFGQGTKVEIKR
notes: IgG1
B14: G1/929_01_A10 (antibody, human IgG1, V domains shown)
VH: B3 VH
VL: B13 VL
notes: IgG1
B15: G1AA/E12v2 (antibody, human IgG1, kappa, L234A L235A, V domains shown)
VH: B3 VH with T28P, G55S, S57G
VL: B3 VL
notes: IgG1 with LALA, kappa light chain; SGGT at 54-57 and proline at Kabat 28 of VH
B16: G1AA/lambdav3 (antibody, human IgG1, L234A L235A, V domains shown)
VH: B3 VH with G55S, S57G
VL: QSALTQPASVSGSPGQSITISCTGTSSDVGGYNYVSWYQQFPGKAPKLMIFEVTNRPSGVSDRFSGSKSDNTASLTISGLQAEDEAEYYCSSFKRGSTLVVFG
notes: IgG1 with LALA, lambda light chain; also called G1AA/lamdav3
B17: G1AA/G12v2 (antibody, human IgG1, kappa, L234A L235A)
heavy: not shown
light: DIQMTQSPSTLSASVGDRVTITCRASQSISGRLAWYQQKPGKAPNLLIYEASNLESGVPSRFSGSGSGTEFTLTISSLQPEDFATYYCQQSYSWPRTFGQGTKVEIKRTVAAPSVFIFPPSDEQLKSGTASVVCLLNNFYPREAKVQWKVDNALQSGNSQESVTEQDSKDSTYSLSSTLTLSKADYEKHKVYACEVTHQGLSSPVTKSFNRGEC
notes: IgG1 with LALA, kappa light chain
B18: G1AA/E05v2 (antibody, human IgG1, kappa, L234A L235A)
heavy: not shown
light: DIQMTQSPSTLSASVGDRVTITCRASQSISGRLAWYQQKPGKAPNLLIYEASNLESGVPSRFSGSGSGTEFTLTISSLQPEDFATYYCQQSYSTPRVTFGQGTKVEIKRTVAAPSVFIFPPSDEQLKSGTASVVCLLNNFYPREAKVQWKVDNALQSGNSQESVTEQDSKDSTYSLSSTLTLSKADYEKHKVYACEVTHQGLSSPVTKSFNRGEC
notes: as for B17

target: T1, mouse PD-L1-His (Acro Biosystems, PD1-M5220) (mouse, UniProt Q9EP73 19-238); assay: SPR (Biacore T200), mAb on Protein A chip, antigen 81-0.037 nM; Rmax of the human profile used
T1 construct: Bought; also called recombinant mouse PD-L1
T1 sequence (Q9EP73 19-238 limits assumed): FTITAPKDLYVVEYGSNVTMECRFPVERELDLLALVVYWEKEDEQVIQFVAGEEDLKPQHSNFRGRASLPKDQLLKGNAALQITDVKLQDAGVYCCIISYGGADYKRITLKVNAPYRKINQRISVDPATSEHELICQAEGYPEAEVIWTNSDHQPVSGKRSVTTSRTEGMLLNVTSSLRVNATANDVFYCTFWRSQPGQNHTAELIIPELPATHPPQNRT
Procedure: (§1) Briefly, the anti-PD-L1 mAbs, diluted in HBS-EP buffer (GE Healthcare, BR100188) at 2 μg/ml, were injected individually on flows cell 2, 3 and 4 of a Protein A chip (GE Healthcare, 29127556) at 30 μl/min to achieve a final response of approximately 110 RU. The recombinant human, cynomolgus and mouse PD-L1-His antigens, diluted in HBS-EP buffer, were injected on flow cell 1, 2, 3 or 4 as appropriate at a concentration range of 81 nM to 0.037 nM with 3-fold dilutions for 4 min at 75 μl/min and then allowed to dissociate in buffer for 10 min. Regeneration was achieved by injecting 10 mM glycine-HCL pH1.5 (GE Healthcare, Human Antibody Capture Kit, BR00356) for 30 sec at a rate of 30 μl/min. Subtracted data (flow cell 2-flow cell 1, flow cell 3-flow cell 1, or flow cell 4-flow cell 1) were analysed using BIAevaluation 3.2 Software (GE Healthcare) to identify binding using the model 1:1 binding with mass transfer, with refractive index (RI) constant 0. To determine the affinities of the mouse PD-L1 binding curves, the Rmax of the corresponding human binding profiles was used.

B1 was tested, and the Kd was 137 nM.

target: PD-L1 on PD-L1 cells (Promega, CS178103; PD1/PD-L1 Blockade Bioassay J1250/J1255) (UniProt Q9NZQ7 19-290); assay: cell-based or functional assay
Sequence (Q9NZQ7 19-290): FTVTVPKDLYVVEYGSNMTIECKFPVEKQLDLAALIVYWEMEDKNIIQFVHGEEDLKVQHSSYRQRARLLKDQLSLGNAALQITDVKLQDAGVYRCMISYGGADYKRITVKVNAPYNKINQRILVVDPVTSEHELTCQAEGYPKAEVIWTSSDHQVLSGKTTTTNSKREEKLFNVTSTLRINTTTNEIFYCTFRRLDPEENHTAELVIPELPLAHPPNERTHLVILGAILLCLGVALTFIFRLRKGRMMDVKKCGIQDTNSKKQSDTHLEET

For B2, the “IC50 (nM), PD1/PD-L1 Blockade Bioassay” value was 0.51 nM.

target: T2, biotinylated human PD-L1-Avi-His (Acro Biosystems, PD1-H82E5) (human, UniProt Q9NZQ7 19-238, biotinylated); assay: SPR (Biacore T200), mAb on Protein A chip, antigen 81-0.037 nM
T2 construct: Bought
T2 sequence (Q9NZQ7 19-238 limits assumed): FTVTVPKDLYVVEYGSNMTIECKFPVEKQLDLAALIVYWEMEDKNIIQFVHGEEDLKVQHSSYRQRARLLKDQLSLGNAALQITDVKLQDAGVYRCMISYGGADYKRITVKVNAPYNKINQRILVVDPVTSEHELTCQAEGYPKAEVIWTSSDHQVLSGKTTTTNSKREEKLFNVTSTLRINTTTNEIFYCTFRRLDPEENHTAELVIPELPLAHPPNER
Procedure: as §1

In the case of B1, the Kd is reported as 1.1 nM.

target: T3, cynomolgus PD-L1-His (Acro Biosystems, PD1-C52H4) (cynomolgus, UniProt G7PSE7 19-239); assay: as above
T3 construct: Bought; also called Cyno PD-L1-His
T3 sequence (G7PSE7 entry or part of it): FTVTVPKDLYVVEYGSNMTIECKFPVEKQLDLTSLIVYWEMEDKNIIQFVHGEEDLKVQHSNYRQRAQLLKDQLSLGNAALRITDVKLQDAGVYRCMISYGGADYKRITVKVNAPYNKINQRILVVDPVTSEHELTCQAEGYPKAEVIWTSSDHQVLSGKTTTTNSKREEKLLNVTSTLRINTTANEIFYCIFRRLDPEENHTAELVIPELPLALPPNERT
Procedure: as §1

For B1, the Kd was 1.32 nM.

target: T4, human PD-L1-rCD4-His (human); assay: SPR, IgG1 from culture supernatant
T4 construct: Human PD-L1 fused to the monomeric C-terminal rat CD4 domains 3 and 4 tag and His tag; made in HEK293; The entry as printed begins with the signal peptide (MRIF...); also called hPD-L1-rCD4-His; hu-PD-L1-rCD4-His
T4 sequence (chain, as listed by the source limits assumed): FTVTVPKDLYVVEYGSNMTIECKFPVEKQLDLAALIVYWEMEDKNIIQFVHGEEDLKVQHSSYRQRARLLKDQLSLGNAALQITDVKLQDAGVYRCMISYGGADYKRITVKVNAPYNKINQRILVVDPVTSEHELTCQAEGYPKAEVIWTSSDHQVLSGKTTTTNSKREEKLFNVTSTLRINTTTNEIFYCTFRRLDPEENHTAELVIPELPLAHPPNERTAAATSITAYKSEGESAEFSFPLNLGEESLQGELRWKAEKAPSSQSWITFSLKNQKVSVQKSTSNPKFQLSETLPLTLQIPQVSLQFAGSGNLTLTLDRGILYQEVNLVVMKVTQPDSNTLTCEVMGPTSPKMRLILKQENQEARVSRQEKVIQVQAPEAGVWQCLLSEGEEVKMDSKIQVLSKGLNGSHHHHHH

Point of comparison: B11, Kd 0.42 nM. Against it:
- B3 — 6.3-fold higher, 2.66 nM
- B4 — within 1.5-fold, 0.55 nM
- B5 — within 1.5-fold, 0.47 nM
- B6 — within 1.5-fold, 0.45 nM
- B7 — 6.3-fold higher, 2.66 nM
- B8 — within 1.5-fold, 0.47 nM
- B9 — within 1.5-fold, 0.49 nM
- B10 — within 1.5-fold, 0.5 nM
- B12 — within 1.5-fold, 0.51 nM
- B13 — within 1.5-fold, 0.51 nM
- B14 — the same, 0.42 nM
- B2 — 2.9-fold higher, 1.2 nM

target: T5, Cyno PD-L1-rCD4-His (cynomolgus); assay: SPR, IgG1 from culture supernatant
T5 construct: The entry as printed begins with the signal peptide; also called cynomolgus PD-L1-rCD4-His
T5 sequence (chain, as listed by the source limits assumed): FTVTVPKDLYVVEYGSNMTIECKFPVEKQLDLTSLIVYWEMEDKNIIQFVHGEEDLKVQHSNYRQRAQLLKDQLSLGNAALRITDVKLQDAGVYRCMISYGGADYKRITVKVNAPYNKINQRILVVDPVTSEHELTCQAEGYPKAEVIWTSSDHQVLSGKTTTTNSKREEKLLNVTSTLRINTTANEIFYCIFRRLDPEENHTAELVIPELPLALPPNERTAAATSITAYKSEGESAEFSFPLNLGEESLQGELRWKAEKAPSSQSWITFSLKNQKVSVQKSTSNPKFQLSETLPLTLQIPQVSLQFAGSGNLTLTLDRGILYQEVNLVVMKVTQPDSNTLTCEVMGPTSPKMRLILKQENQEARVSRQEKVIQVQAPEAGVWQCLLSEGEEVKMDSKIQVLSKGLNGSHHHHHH

Point of comparison: B3, Kd 3.18 nM. Against it:
- B4 — 5.1-fold lower, 0.62 nM
- B5 — 5.3-fold lower, 0.6 nM
- B6 — 5.5-fold lower, 0.58 nM
- B7 — within 1.5-fold, 3.31 nM
- B8 — 5.4-fold lower, 0.59 nM
- B9 — 5.6-fold lower, 0.57 nM
- B10 — 4.9-fold lower, 0.65 nM
- B11 — 5.6-fold lower, 0.57 nM
- B12 — 5.6-fold lower, 0.57 nM
- B13 — 4.8-fold lower, 0.66 nM
- B14 — 5.3-fold lower, 0.6 nM
- B2 — 1.8-fold lower, 1.8 nM

target: T2, biotinylated human PD-L1-Avi-His (Acro …); assay: SPR as in Example 3.2, mAb on Protein A chip
Procedure: as §1

Point of comparison: B15, Kd 0.21 nM. Against it:
- B16 — 6.4-fold higher, 1.34 nM
- B17 — 2.1-fold higher, 0.44 nM
- B18 — 2.4-fold higher, 0.5 nM

target: T3, cynomolgus PD-L1-His (Acro Biosystems, …); assay: SPR as in Example 3.2, mAb on Protein A chip
Procedure: as §1

Point of comparison: B15, Kd 0.37 nM. Against it:
- B16 — 6.6-fold higher, 2.45 nM
- B17 — 2-fold higher, 0.75 nM
- B18 — 2.4-fold higher, 0.89 nM
